Reference: the supplement of paper PMC11246515
± gives the standard deviation of the averaged measurements.

Experiment: total protein half-life in vivo (active degradation + dilution); higher = more stable protein
[1] = E. coli NCM3722 delta-clpP delta-lon delta-hslV, growth: N-lim chemostat, doubling time 6 h
[2] = E. coli NCM3722 delta-clpP, growth: N-lim chemostat, doubling time 6 h
[3] = E. coli NCM3722 delta-hslV, growth: N-lim chemostat, doubling time 6 h
[4] = E. coli NCM3722 delta-lon, growth: N-lim chemostat, doubling time 6 h
[5] = E. coli NCM3722 delta-smpB, growth: N-lim chemostat, doubling time 6 h
[6] = wild type E. coli NCM3722, growth: C-lim chemostat, doubling time 3 h
[7] = wild type E. coli NCM3722, growth: C-lim chemostat, doubling time 6 h
[8] = wild type E. coli NCM3722, growth: C-lim chemostat, doubling time 12 h
[9] = wild type E. coli NCM3722, growth: N-lim chemostat, doubling time 6 h
[10] = wild type E. coli NCM3722, growth: N-lim chemostat, doubling time 12 h
[11] = wild type E. coli NCM3722, growth: P-lim chemostat, doubling time 6 h
[12] = wild type E. coli NCM3722, growth: P-lim chemostat, doubling time 12 h

Sequence	total protein half-life in vivo [1] [h]	total protein half-life in vivo [2] [h]	total protein half-life in vivo [3] [h]	total protein half-life in vivo [4] [h]	total protein half-life in vivo [5] [h]	total protein half-life in vivo [6] [h]	total protein half-life in vivo [7] [h]	total protein half-life in vivo [8] [h]	total protein half-life in vivo [9] [h]	total protein half-life in vivo [10] [h]	total protein half-life in vivo [11] [h]	total protein half-life in vivo [12] [h]
MWQAISRLLSEQLGEGEIELRNELPGGEVHAAWHLRYAGHDFFVKCDERELLPGFTAEADQLELLSRSKTVTVPKVWAVGADRDYSFLVMDYLPPRPLDAHSAFILGQQIARLHQWSDQPQFGLDFDNALSTTPQPNTWQRRWSTFFAEQRIGWQLELAAEKGIAFGNIDAIVEHIQQRLASHQPQPSLLHGDLWSGNCALGPDGPYIFDPACYWGDRECDLAMLPLHTEQPPQIYDGYQSVSPLPADFLERQPVYQLYTLLNRARLFGGQHLVIAQQSLDRLLAA	4.14 ± 0.66	3.457 ± 0.023	3.84 ± 0.5	3.77 ± 0.099	3.3 ± 0.13	3.159 ± 0.0069	5.21 ± 0.11	9.56 ± 0.57	3.31 ± 0.31	5.08 ± 0.18	5.685 ± 0.017	11.2 ± 0.46
MKLTLKNLSMAIMMSTIVMGSSAMAADSNEKIVIAHRGASGYLPEHTLPAKAMAYAQGADYLEQDLVMTKDDNLVVLHDHYLDRVTDVADRFPDRARKDGRYYAIDFTLDEIKSLKFTEGFDIENGKKVQTYPGRFPMGKSDFRVHTFEEEIEFVQGLNHSTGKNIGIYPEIKAPWFHHQEGKDIAAKTLEVLKKYGYTGKDDKVYLQCFDADELKRIKNELEPKMGMELNLVQLIAYTDWNETQQKQPDGSWVNYNYDWMFKPGAMKQVAEYADGIGPDYHMLIEETSQPGNIKLTGMVQDAQQNKLVVHPYTVRSDKLPEYTPDVNQLYDALYNKAGVNGLFTDFPDKAVKFLNKE	5.71 ± 0.74	6.03 ± 0.55	5.36 ± 0.34	7.08 ± 0.86	4.739 ± 0.036	3.12 ± 0.32	6.48 ± 0.5	11.4 ± 0.14	5.53 ± 0.091	10.9 ± 1.6	5.23 ± 0.11	11.7 ± 0.17
MITYHDAFAKANHYLDDADLPVVITLHGRFSQGWYFCFEAREFLETGDEAARLAGNAPFIIDKDSGEIHSLGTAKPLEEYLQDYEIKKATFGLP	4.62 ± 0.3											
MTESVARLRGEQLTLGYGKYTVAENLTVEIPDGHFTAIIGPNGCGKSTLLRTLSRLMTPAHGHVWLDGEHIQHYASKEVARRIGLLAQNATTPGDITVQELVARGRYPHQPLFTRWRKEDEEAVTKAMQATGITHLADQSVDTLSGGQRQRAWIAMVLAQETAIMLLDEPTTWLDISHQIDLLELLSELNREKGYTLAAVLHDLNQACRYASHLIALREGKIVAQGAPKEIVTAELIERIYGLRCMIIDDPVAGTPLVVPLGRTAPSTANS					3.69	3.78	5.57	> 16		7.66		
MVTFHTNHGDIVIKTFDDKAPETVKNFLDYCREGFYNNTIFHRVINGFMIQGGGFEPGMKQKATKEPIKNEANNGLKNTRGTLAMARTQAPHSATAQFFINVVDNDFLNFSGESLQGWGYCVFAEVVDGMDVVDKIKGVATGRSGMHQDVPKEDVIIESVTVSE	4.83 ± 0.65	4.38	4.92 ± 0.92	4.83 ± 0.27	4.11 ± 0.046	3.3 ± 0.97	6.03 ± 0.56	9.92 ± 0.88	4.507 ± 0.039	7.49 ± 1.2		11.1 ± 0.3
MLNTLIVGASGYAGAELVTYVNRHPHMNITALTVSAQSNDAGKLISDLHPQLKGIVDLPLQPMSDISEFSPGVDVVFLATAHEVSHDLAPQFLEAGCVVFDLSGAFRVNDATFYEKYYGFTHQYPELLEQAAYGLAEWCGNKLKEANLIAVPGCYPTAAQLALKPLIDADLLDLNQWPVINATSGVSGAGRKAAISNSFCEVSLQPYGVFTHRHQPEIATHLGADVIFTPHLGNFPRGILETITCRLKSGVTQAQVAQVLQQAYAHKPLVRLYDKGVPALKNVVGLPFCDIGFAVQGEHLIIVATEDNLLKGAAAQAVQCANIRFGYAETQSLI	3.94 ± 0.2	> 8	3.34 ± 0.5	4.24 ± 0.74	3.24 ± 0.057	2.67 ± 0.42	5.7 ± 1.4	9.58 ± 0.43	3.24	5.58	5.06 ± 0.19	9.57 ± 0.58
MANLLNKFIMTRILAAITLLLSIVLTILVTIFCSVPIIIAGIVKLLLPVPVIWRKVSRFCDFMMYCWCEGLAVLLHLNPHLQWEVHGLEGLSKKNWYLLICNHRSWADIVVLCVLFRKHIPMNKYFLKQQLAWVPFLGLACWSLDMPFMKRYSRAYLLRHPERRGKDVETTRRSCEKFRLHPTTIVNFVEGSRFTQEKHQQTHSTFQNLLPPKAAGIAMALNVLGKQFDKLLNVTLCYPDNNRQPFFDMLSGKLTRIVVHVDLQPIADELHGDYINDKSFKRHFQQWLNSLWQEKDRLLTSLMSSQRQNK		6.87					6.03			10.5		13.6
MSKRLPPLNALRVFDAAARHLSFTRAAEELFVTQAAVSHQIKSLEDFLGLKLFRRRNRSLLLTEEGQSYFLDIKEIFSQLTEATRKLQARSAKGALTVSLLPSFAIHWLVPRLSSFNSAYPGIDVRIQAVDRQEDKLADDVDVAIFYGRGNWPGLRVEKLYAEYLLPVCSPLLLTGEKPLKTPEDLAKHTLLHDASRRDWQTYTRQLGLNHINVQQGPIFSHSAMVLQAAIHGQGVALANNVMAQSEIEAGRLVCPFNDVLVSKNAFYLVCHDSQAELGKIAAFRQWILAKAAAEQEKFRFRYEQ [P0A9F6]	5.93 ± 0.27		5.94 ± 0.4		5.73 ± 0.34	3.2 ± 0.13	6.59 ± 0.7	11 ± 0.54	6.86 ± 0.45	12.1 ± 0.34	5.82 ± 0.081	13.3 ± 1.3
MSQKLKVVTIGGGSSYTPELLEGFIKRYHELPVSELWLVDVEGGKPKLDIIFDLCQRMIDNAGVPMKLYKTLDRREALKDADFVTTQLRVGQLPARELDERIPLSHGYLGQETNGAGGLFKGLRTIPVIFDIVKDVEELCPNAWVINFTNPAGMVTEAVYRHTGFKRFIGVCNIPIGMKMFIRDVLMLKDSDDLSIDLFGLNHMVFIKDVLINGKSRFAELLDGVASGQLKASSVKNIFDLPFSEGLIRSLNLLPCSYLLYYFKQKEMLAIEMGEYYKGGARAQVVQKVEKQLFELYKNPELKVKPKELEQRGGAYYSDAACEVINAIYNDKQAEHYVNIPHHGQIDNIPADWAVEMTCKLGRDGATPHPRITHFDDKVMGLIHTIKGFEIAASNAALSGEFNDVLLALNLSPLVHSDRDAELLAREMILAHEKWLPNFADCIAELKKAH	6.05 ± 1.9	7.38	> 8		3.97 ± 0.054	2.84 ± 0.34	6.45 ± 1.8	9.95 ± 0.38	4.52	8.23 ± 0.59	6.29 ± 0.62	11 ± 1.1
